Assay results from patent publication US20260184748A1 (University of Pennsylvania, published 2026).
Where no end group is shown, it is not given here.

Experiments:
Assay in all cases: cell-based or functional assay
CRHR2 = molecular target: T1, CRHR2 (UniProt Q13324 1-411, limits assumed)
T1 sequence (looked up): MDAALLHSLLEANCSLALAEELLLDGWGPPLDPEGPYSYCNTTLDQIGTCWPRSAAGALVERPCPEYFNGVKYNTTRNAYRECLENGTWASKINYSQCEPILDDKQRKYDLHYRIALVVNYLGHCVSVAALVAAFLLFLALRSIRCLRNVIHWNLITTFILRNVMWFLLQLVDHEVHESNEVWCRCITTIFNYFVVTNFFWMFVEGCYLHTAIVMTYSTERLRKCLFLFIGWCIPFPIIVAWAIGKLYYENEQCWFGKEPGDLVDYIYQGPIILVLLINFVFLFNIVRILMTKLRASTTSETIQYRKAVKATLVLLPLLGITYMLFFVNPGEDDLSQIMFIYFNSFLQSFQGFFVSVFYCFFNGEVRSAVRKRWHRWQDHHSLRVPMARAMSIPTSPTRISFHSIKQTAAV

UTR2 = molecular target: T2, UTR2 (UniProt Q9UKP6 1-389)
T2 sequence (looked up): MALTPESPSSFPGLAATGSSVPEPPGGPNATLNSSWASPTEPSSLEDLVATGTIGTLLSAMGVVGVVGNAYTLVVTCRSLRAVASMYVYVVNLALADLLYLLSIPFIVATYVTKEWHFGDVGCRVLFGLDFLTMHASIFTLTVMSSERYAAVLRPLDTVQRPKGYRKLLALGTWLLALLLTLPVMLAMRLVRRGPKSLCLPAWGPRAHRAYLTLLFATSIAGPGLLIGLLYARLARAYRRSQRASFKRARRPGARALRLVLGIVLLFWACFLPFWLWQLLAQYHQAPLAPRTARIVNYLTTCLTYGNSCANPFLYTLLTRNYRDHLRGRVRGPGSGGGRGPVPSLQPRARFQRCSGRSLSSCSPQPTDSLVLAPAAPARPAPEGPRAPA

CALCRL-RAMP2 = CALCRL-RAMP2 (UniProt Q16602 23-461; O60895 43-175)
Sequence of CALCRL-RAMP2 (Q16602 23-461 limits assumed, chain 1 of 2): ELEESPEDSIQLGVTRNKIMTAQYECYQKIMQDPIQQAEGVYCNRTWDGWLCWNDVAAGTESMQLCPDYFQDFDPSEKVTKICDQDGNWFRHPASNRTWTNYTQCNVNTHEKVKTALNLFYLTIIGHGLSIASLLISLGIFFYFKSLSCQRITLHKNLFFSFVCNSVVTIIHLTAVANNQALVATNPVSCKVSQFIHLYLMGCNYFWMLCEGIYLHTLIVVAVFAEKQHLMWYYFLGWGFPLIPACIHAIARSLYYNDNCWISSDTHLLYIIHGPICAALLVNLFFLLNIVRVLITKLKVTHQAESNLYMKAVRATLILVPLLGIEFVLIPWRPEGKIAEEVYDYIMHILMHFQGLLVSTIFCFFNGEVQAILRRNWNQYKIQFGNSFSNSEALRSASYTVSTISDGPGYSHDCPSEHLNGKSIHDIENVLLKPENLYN
Sequence of CALCRL-RAMP2 (O60895 43-175 limits assumed, chain 2 of 2): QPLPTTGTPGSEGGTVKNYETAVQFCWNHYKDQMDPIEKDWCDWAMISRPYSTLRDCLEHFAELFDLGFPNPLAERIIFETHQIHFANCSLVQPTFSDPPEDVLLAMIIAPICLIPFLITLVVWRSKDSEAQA

LTB4R = LTB4R (UniProt Q15722 1-352)
Sequence of LTB4R (Q15722 whole entry): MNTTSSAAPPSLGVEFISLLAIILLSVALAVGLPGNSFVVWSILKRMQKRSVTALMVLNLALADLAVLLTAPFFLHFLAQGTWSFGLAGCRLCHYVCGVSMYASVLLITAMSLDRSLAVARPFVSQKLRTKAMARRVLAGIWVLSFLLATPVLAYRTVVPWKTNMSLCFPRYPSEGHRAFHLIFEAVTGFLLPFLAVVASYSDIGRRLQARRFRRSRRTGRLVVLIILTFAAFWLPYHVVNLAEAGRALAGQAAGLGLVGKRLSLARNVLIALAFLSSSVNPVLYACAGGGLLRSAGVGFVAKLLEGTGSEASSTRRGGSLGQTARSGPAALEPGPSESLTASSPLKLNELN

GALR2 = molecular target: T3, GALR2 (UniProt O43603 1-387)
T3 sequence (looked up): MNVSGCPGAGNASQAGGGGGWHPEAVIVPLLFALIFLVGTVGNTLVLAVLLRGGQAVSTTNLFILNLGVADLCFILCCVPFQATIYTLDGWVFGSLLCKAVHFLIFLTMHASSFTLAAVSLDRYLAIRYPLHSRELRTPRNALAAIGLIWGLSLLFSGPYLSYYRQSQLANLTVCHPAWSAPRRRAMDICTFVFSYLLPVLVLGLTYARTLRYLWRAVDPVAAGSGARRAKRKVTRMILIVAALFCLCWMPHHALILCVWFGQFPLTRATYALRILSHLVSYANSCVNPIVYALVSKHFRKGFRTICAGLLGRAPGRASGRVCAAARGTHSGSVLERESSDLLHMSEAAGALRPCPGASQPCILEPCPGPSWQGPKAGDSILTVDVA

HTR1B = HTR1B (UniProt P28222 1-390)
Sequence of HTR1B (P28222 whole entry): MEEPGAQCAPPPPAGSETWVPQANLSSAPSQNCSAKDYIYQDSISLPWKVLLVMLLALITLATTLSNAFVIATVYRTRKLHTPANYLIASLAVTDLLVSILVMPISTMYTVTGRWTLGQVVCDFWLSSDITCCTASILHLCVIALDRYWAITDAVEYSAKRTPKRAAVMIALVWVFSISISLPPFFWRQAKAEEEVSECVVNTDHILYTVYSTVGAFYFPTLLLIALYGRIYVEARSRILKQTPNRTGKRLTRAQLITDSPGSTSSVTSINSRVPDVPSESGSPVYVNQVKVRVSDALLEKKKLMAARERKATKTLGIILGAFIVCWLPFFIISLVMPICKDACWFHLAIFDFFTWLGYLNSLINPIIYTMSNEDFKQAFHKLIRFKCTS

GPR109A = GPR109A (UniProt Q8TDS4 1-363)
Sequence of GPR109A (Q8TDS4 whole entry): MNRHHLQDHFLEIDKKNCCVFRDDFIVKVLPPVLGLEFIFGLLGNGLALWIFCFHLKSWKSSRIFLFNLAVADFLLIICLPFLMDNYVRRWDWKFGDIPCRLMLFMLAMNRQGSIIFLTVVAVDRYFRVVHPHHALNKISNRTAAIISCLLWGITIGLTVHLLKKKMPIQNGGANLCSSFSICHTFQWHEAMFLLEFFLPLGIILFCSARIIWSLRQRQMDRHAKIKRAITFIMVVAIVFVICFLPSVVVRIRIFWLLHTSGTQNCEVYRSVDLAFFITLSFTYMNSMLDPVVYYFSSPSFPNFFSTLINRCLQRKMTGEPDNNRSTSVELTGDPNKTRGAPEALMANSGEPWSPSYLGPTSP

CXCR5 = molecular target: T4, CXCR5 (UniProt P32302 1-372)
T4 sequence (looked up): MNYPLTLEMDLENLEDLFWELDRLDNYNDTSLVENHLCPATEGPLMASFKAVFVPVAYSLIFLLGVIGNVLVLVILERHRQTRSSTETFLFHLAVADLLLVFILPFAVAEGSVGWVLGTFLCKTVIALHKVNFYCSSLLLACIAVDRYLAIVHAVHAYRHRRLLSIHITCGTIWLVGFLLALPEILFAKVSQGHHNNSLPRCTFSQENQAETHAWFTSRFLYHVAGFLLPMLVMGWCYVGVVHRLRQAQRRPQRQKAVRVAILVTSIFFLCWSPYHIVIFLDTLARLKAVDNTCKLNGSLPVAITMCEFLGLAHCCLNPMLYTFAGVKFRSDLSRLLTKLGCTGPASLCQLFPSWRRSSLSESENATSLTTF

CHRM1 = molecular target: T5, CHRM1 (UniProt P11229 1-460)
T5 sequence (looked up): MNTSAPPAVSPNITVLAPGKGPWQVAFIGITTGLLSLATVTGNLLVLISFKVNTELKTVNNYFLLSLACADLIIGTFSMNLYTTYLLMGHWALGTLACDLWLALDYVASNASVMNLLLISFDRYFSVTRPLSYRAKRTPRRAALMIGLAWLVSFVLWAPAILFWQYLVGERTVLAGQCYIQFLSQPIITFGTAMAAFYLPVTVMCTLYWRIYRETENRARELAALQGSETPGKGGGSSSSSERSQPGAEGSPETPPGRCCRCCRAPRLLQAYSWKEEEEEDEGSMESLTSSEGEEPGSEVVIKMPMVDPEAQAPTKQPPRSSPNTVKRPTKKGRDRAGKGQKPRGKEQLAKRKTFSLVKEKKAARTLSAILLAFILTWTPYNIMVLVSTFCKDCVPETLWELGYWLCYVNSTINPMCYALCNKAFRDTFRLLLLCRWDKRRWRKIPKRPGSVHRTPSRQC

QATVGDVNTDRPGLLDLK (also: synthesised on Rink amide resin, C-terminal amide not given here outright) [octadecaneuropeptide (ODN)] was tested, and the “% Activity, arrestin, antagonist mode, 2.5 uM” value (“% Activity, arrestin” for short) (CRHR2) was -8.6%, the “% Activity, arrestin” value (UTR2) was -27.2% and the “% Activity, arrestin” value (CALCRL-RAMP2) was -11.6%. The “% Activity, arrestin” value (LTB4R) was 10.3%, the “% Activity, arrestin” value (GALR2) was -29.7% and the “% Activity, arrestin” value (HTR1B) was -11.9%. The “% Activity, arrestin” value (GPR109A) was -16%, the “% Activity, arrestin” value (CXCR5) was -18.9% and the “% Activity, arrestin” value (CHRM1) was 9.3%.
